B1: LINE1-full (parent)
chain: UACGUAGGUGGUUUUCCCCUGAUAGUGCUAAGGGGGCCUGGAAGUUUGGACUGGGCAGAGCUCAACACAGCGUGGCAAAGUGGCUGUGGCUAGACUGCCUCUCUGGAUUCCUCGUCACUCAGCAGGGCAUCUCUGAGAGAAAUGCC

Variants of: B1
Assay: self-cleavage, relative activity (ratio to wild type); higher = more cleavage; in vitro, sequencing; the parent is a self-cleaving ribozyme
A77G A124U gave a self-cleavage of 1.84. Work on A77G A124G yielded a self-cleavage of 1.9. A78U U87C gave a self-cleavage of 0.84. For A77G A79G, the self-cleavage was 0.95. For U73G U85G, the self-cleavage was 0.06. With A77U A124U the self-cleavage was 1.27. A77U A124C showed a self-cleavage of 1.49. For G75A G83A, the self-cleavage was 0.76. Work on U73C U119C yielded a self-cleavage of 2.11. U73C U119A showed a self-cleavage of 1.64. With G75U G139A the self-cleavage was 0.89. For U73G U91C, the self-cleavage was 0.29. Work on A77C A140G yielded a self-cleavage of 1.16. U73C U132A showed a self-cleavage of 1.25. U73C U132C gave a self-cleavage of 2.09. With C76A A136G the self-cleavage was 1.79. In the case of A78G G83A, the self-cleavage is reported as 0.25. A77G C103A gave a self-cleavage of 2.24. In the case of A77G C103U, the self-cleavage is reported as 1.99. In the case of A77U U104C, the self-cleavage is reported as 1.74. For A77G A117G, the self-cleavage was 2.32. A77U A78G showed a self-cleavage of 0.68. C76U C101A showed a self-cleavage of 1.6. For G74U A121U, the self-cleavage was 1.02. Work on A77G G93U yielded a self-cleavage of 0.05. Variant A78G A129U has a self-cleavage of 1.17. Variant A77U U108G has a self-cleavage of 1.37. In the case of G75A U130C, the self-cleavage is reported as 0.95. A78G G126C gave a self-cleavage of 1.99. C76U A107G gave a self-cleavage of 2.53. With A78U A79G the self-cleavage was 0.74. For A77U U85C, the self-cleavage was 0.09. G74A U96A showed a self-cleavage of 0.07. A77U U134A gave a self-cleavage of 0.57. In the case of A78U C84A, the self-cleavage is reported as 0.18. Work on G74U U130C yielded a self-cleavage of 1.64. Work on G74A G86A yielded a self-cleavage of 0. Work on G74A A79U yielded a self-cleavage of 2.06. In the case of G74A A79G, the self-cleavage is reported as 0.8. In the case of A78U G135A, the self-cleavage is reported as 1.8. In the case of C76U A94C, the self-cleavage is reported as 0.11. U73C U143A gave a self-cleavage of 1.63. U73C U143C showed a self-cleavage of 2.13. In the case of G74A A142G, the self-cleavage is reported as 1.1. Work on A77U G122A yielded a self-cleavage of 0.36. C76U U100C gave a self-cleavage of 2.91. Work on A78G U134A yielded a self-cleavage of 0.9. For A78G U134G, the self-cleavage was 1.07. Variant A78G G89C has a self-cleavage of 0.07. For C76A U102C, the self-cleavage was 1.39. With A77U U132G the self-cleavage was 1.74. Work on A77U U132C yielded a self-cleavage of 1.41. A77U A138G gave a self-cleavage of 1.75. In the case of A77U A138U, the self-cleavage is reported as 1.27. Variant G74A U100A has a self-cleavage of 0.7. For A78G U104C, the self-cleavage was 1.82. Variant A78C A121G has a self-cleavage of 2.59. Work on A77U G125A yielded a self-cleavage of 1.33. A77U G125U showed a self-cleavage of 1.5. A78U A124U gave a self-cleavage of 2.15. A77U A136U showed a self-cleavage of 0.75. A78G U115C gave a self-cleavage of 1.51. For G74C U102C, the self-cleavage was 0.88. A77C G126A gave a self-cleavage of 1.25. A77G G83A gave a self-cleavage of 1.75. A77G U119C gave a self-cleavage of 2.81. In the case of A77C U102A, the self-cleavage is reported as 1.37. In the case of A77U U91C, the self-cleavage is reported as 0.6. Variant A78G G106A has a self-cleavage of 1.45. Work on A77C U85A yielded a self-cleavage of 0.18. Variant G74A A94U has a self-cleavage of 0.17. In the case of G74A A121G, the self-cleavage is reported as 1.43. Work on C76U U132A yielded a self-cleavage of 2.54. With G75C the self-cleavage was 0.6. G75A gave a self-cleavage of 1.11. G75U showed a self-cleavage of 0.62. In the case of A77G U102A, the self-cleavage is reported as 2.63. A77U U119A showed a self-cleavage of 1.51. With A78G A121C the self-cleavage was 1.9. For A78G A121G, the self-cleavage was 1.24. For A78G A121U, the self-cleavage was 0.67. In the case of A78G G80A, the self-cleavage is reported as 2.49. For A77G A107G, the self-cleavage was 2.08. A78U A136C showed a self-cleavage of 2.73. With G74U A142G the self-cleavage was 1.63. With A78U A141G the self-cleavage was 1.96. A78C A117G gave a self-cleavage of 2.21. Variant G74U A78U has a self-cleavage of 2.2. Work on C76A G106U yielded a self-cleavage of 1.2. Work on C76A A78G yielded a self-cleavage of 1.68. A77U C110U showed a self-cleavage of 0.94. U73G A77G gave a self-cleavage of 0.98. A78G U109C showed a self-cleavage of 1.38. For C76U A141C, the self-cleavage was 1.29. Variant C76U A141G has a self-cleavage of 1.18. In the case of G74A U115A, the self-cleavage is reported as 1.45. A78G C146U showed a self-cleavage of 1.06. In the case of A78G A140U, the self-cleavage is reported as 1.38. Work on A78G A140G yielded a self-cleavage of 1.18. In the case of U73G C84U, the self-cleavage is reported as 0.17. With C76U A92G the self-cleavage was 0.06. Variant A78G U130C has a self-cleavage of 1.29. A78G U130G gave a self-cleavage of 1.88. Variant A78G U130A has a self-cleavage of 1.1. A77U C123U showed a self-cleavage of 0.84. Work on A78G U85A yielded a self-cleavage of 0.09. With A78U G122A the self-cleavage was 1.36. G74U U91A gave a self-cleavage of 0.57. With G74U U91C the self-cleavage was 0.59. With U73G A142G the self-cleavage was 1.2. For G74A U130G, the self-cleavage was 1.51. Work on C76U U112A yielded a self-cleavage of 2.4. G75C U134C gave a self-cleavage of 0.58. A77G U100A showed a self-cleavage of 1.93. In the case of C76U U96A, the self-cleavage is reported as 0.05. In the case of C76U U96C, the self-cleavage is reported as 0.13. A78G C84A showed a self-cleavage of 0.09. A78C G122A showed a self-cleavage of 1.41. G74A A138G gave a self-cleavage of 1.26. Variant A78U U102C has a self-cleavage of 1.12. Variant A78G G93A has a self-cleavage of 0.04. With A77U U143C the self-cleavage was 1.04. A77U U143G showed a self-cleavage of 1.48. In the case of A77U U102C, the self-cleavage is reported as 1.24. U73G A121G gave a self-cleavage of 2.45. A77U A107U showed a self-cleavage of 0.62. For C76U A79G, the self-cleavage was 2.1. U73C U130A showed a self-cleavage of 1.2. U73C U130C gave a self-cleavage of 1.81. Variant A77G A129G has a self-cleavage of 2.21. Work on U73G A124G yielded a self-cleavage of 0.78. Variant U73G A124U has a self-cleavage of 1.36. Variant G75A U134A has a self-cleavage of 1. With A78G A94G the self-cleavage was 0.49. In the case of A78G A94U, the self-cleavage is reported as 0.19. In the case of A78C U112C, the self-cleavage is reported as 1.94. In the case of U73C U112A, the self-cleavage is reported as 1.41. In the case of U73C U112C, the self-cleavage is reported as 1.65. For A77U A94G, the self-cleavage was 0.24. G74U A92G gave a self-cleavage of 0.06. Variant G74A U87A has a self-cleavage of 0.07. G74U A77G showed a self-cleavage of 1.01. G74U A107G showed a self-cleavage of 0.51. In the case of C76U U143A, the self-cleavage is reported as 2.12. For G74U U102C, the self-cleavage was 1.42. G75A U132A gave a self-cleavage of 1.15. A77C U91A showed a self-cleavage of 0.38. In the case of A77G C110U, the self-cleavage is reported as 0.71. Variant A77U G89A has a self-cleavage of 0.06. For A78G U100C, the self-cleavage was 2.09. A78G U100A showed a self-cleavage of 0.16. Work on A78U A142U yielded a self-cleavage of 2.12. Variant A78U A142G has a self-cleavage of 1.87. For G75A A124G, the self-cleavage was 0.72. Variant A77G C133U has a self-cleavage of 1.99. A78G U81G gave a self-cleavage of 0.34. A78G U81C gave a self-cleavage of 1.62. For A78C U96C, the self-cleavage was 0.29. For A77U, the self-cleavage was 1.21. With A77C the self-cleavage was 0.98. For A77G, the self-cleavage was 2.12. C76A U132C gave a self-cleavage of 2.08. Variant G75A A136G has a self-cleavage of 1.35. A77G G89A gave a self-cleavage of 0.03. For A77G A94U, the self-cleavage was 0.61. For A77G A94G, the self-cleavage was 0.68. Work on G75C A142G yielded a self-cleavage of 0.85.
